Patent US7297332B2, “Protease, a gene therefor and the use thereof” (Korean Research Institute of Bioscience and Biotechnology, priority 2000, dated 2007)

Experiments:
[1] = tested on: azocasein; assay: Effects of salts on the activity of the protease; format: biochemical; details: for relative activity: 37° C., 4 hours
Experimental: (§1) Enzyme activity of the protease was measured according to the method described by Braun & Shmitz (Braun, V. & Schmitz, G., Arch. Microbiol. 124, 55-61, 1980). A substrate solution was prepared by dissolving 0.24 g of azocasein in 10 ml of 50 mM phosphate buffer (pH 7.5). The 300 □ of the substrate solution was mixed with 100 □ of bacterial culture solution and reacted at 37° C. for 30 minutes. Then, 300 □ of 10% trichloride acetate was added to the reaction solution and incubated at ambient temperature for 1 hour. The reaction solution was centrifuged at 7,000 rpm until pellet and supernatant was separated substantially. After adding 30 0 of 10% sodium hydroxide (NaOH) to the supernatant, the absorbance was measured at 420 nm. The enzymatic titer was defined as 1 unit by the 1.0 fold increment of absorbance value.
In order to examine effects of salts on the activity of protease, the relative enzyme activity was measured at 37° C. for 4 hours in the presence of various concentrations of sodium chloride solution ranging from 0 to 1700 mM. The relative activity was measured according to the method described in Example 3(1). For comparison, the protease derived from Serratia marcescens SM6 was used as a control.

[2] = tested on: azocasein; assay: Effect of heat on the activity and stability of the protease; format: biochemical
Experimental: as §1
In order to examine the effect of heat on the activity and stability of the protease, the relative enzyme activity was measured at temperatures ranging from 4° C. to 80° C. The measurement of the activity was performed according to the method described in Example 3(1).

[3] = tested on: azocasein; assay: Effect of pH on the activity and stability of the protease; format: biochemical; details: for relative activity: 30 minutes
Experimental: as §1
In order to examine the pH-dependence of the protease of the invention, the inventors prepared various substrate solution with different pH. The each substrate solution was buffered with citrate-phosphate(pH 3.0 to 7.0), sodium phosphate(pH 7.0 to 9.0), Tris-HCl(pH 7.0 to 10.0), and glysine-caustic soda(pH 9.0 to 12.0), respectively. The relative protease activity was measured after mixing enzyme with each of the above substrate solution at 37° C. for 30 minutes. The measurement of the relative protease activity was followed by the method described in Example 3(1).

[4] = tested on: albumin, casein, collagen, elastin and hemoglobin; assay: Activity of the protease on various substrates; format: biochemical; details: all the other substrates including hemoglobin
Experimental: In order to examine the degrading ability of the enzyme against various substrates, the enzyme reactions were performed on substrates such as albumin, casein, collagen, elastin and hemoglobin. […] In 24 hour reaction, all the other substrates including hemoglobin achieved at least 45.

[5] = Protein eluted from raw skin (leather deliming application); details: 0.5% of protease
Experimental: A 20 g of raw skin finely cut into pieces of suitable size and 14 ml of distilled water was mixed in a 50 ml test tube. Then, 0.5% sodium bisulfite and 0.5% ammonium sulfate on the basis of the weight of skin was added thereto and the mixture was incubated for 15 minutes at 26° C. Subsequently, 0.2% of detergent and 0.5% of deliming agent was added thereto and waited for 30 minutes and 1 hour, respectively, before measuring the amount of protein eluted from the skin. In the presence of the 0.5% of protease, the protein eluted amounted to 1054 mg/ml and 1062 mg/ml after 30 minutes and 60 minutes, respectively. In the absence of the protease, the protein eluted amounted to 304.5 mg/ml and 329.5 mg/ml after 30 minute and 60 minutes, respectively.

B1: protease: zinc-binding metalloprotease from Aranicola proteolyticus HY-3, amino acid sequence SEQ ID NO. 1, apparent molecular weight about 51.5 kDa (protein, listed as Aranicola proteolyticus)
chain: MQSTKKAIEITESSLAAASSAYNAVDDLLHYHERGNGIQVNGKDSFSTEQAGLFITRENQTWNGYKVFGQPVKLTFSFPDYKFSSTNVAGDTGLSKFSAEQQQQAKLSLQSWSDVANITFTEVGAGQKANITFGNYSQDRPGHYDYDTQAYAFLPNTIYQGQNLGGQTWYNVNQSNVKHPASEDYGRQTFTHEIGHALGLSHPGDYNAGEGNPTYRDASYAEDTREFSLMSYWSETNTGGDNGGHYAAAPLLDDISAIQHLYGANQTTRTGDTVYGFNSNTGRDFLSTTSNPQKVIFAAWDAGGNDTFDFSGYTANQRINLNEKSFSDVGGLKGNVSIAAGVTIENAIGGSGNDVIVGNAANNVLKGGAGNDVLFGGGGADELWGGAGKDTFVFSAVSDSAPGASDWIKDFQKGIDKIDLSFFNQGAQGGDQIHFVDHFSGAAGEALLSYNASNNVSDLALNIGGHQAPDILVKIVGQVDVATDFIV
modifications: BINDING (192) Zn binding site
notes: 1, apparent molecular weight about 51.5 kDa
In the case of B1, the “activity under high salt concentrations” value ([1]; high salt concentrations) is reported as “retains high activity”, the relative activity ([1]; salt concentration 0 mM NaCl) is reported as 100% and the relative activity ([1]; salt concentration 170 mM NaCl) is reported as 134%. It also gave a relative activity ([1]; salt concentration 340 mM NaCl) of 173%, a relative activity ([1]; salt concentration 510 mM NaCl) of 200% and a relative activity ([1]; salt concentration 680 mM NaCl) of 215%. For the same molecule, the relative activity ([1]; salt concentration 1020 mM NaCl) was 203%, the relative activity ([1]; salt concentration 1360 mM NaCl) was 196% and the relative activity ([1]; salt concentration 1700 mM NaCl) was 155%. The “activity maintained at low temperature” value ([2]; 4° C. to 15° C., relative to maximum activity) was “about a half of the maximum activity”, the “temperature of maximum activity” value ([2]; measured from 4° C. to 80° C.) was 37 °C and the relative activity ([2]; temperature 4 ° C.) was 43%. It also gave a relative activity ([2]; temperature 10 ° C.) of 45%, a relative activity ([2]; temperature 15 ° C.) of 50% and a relative activity ([2]; temperature 20 ° C.) of 76%. For the same molecule, the relative activity ([2]; temperature 25 ° C.) was 81%, the relative activity ([2]; temperature 30 ° C.) was 93% and the relative activity ([2]; temperature 37 ° C.) was 100%. It also gave a relative activity ([2]; temperature 45 ° C.) of 28%, a relative activity ([2]; temperature 50 ° C.) of 22% and a relative activity ([2]; temperature 60 ° C.) of 20%. It also gave a relative activity ([2]; temperature 70 ° C.) of 14%, a relative activity ([2]; temperature 80 ° C.) of 3% and an Ea value (hydrolysis of azocasein), activation energy in Arrenius plot ([2]; temperatures between 4° C. and 37° C.) of 2.43 kcal/mol. For the same molecule, the relative activity ([2]; temperatures between 20° C. to 40° C.) was “at least 75%”, the “pH of maximum activity” value ([3]; azocasein substrate) was 8.0 and the relative activity ([3]; pH 3.0, 37° C.) was 43%. For the same molecule, the relative activity ([3]; pH 4.0, 37° C.) was 66%, the relative activity ([3]; pH 5.0, 37° C.) was 73% and the relative activity ([3]; pH 5.5, 37° C.) was 77%. The relative activity ([3]; pH 6.0, 37° C.) was 79%, the relative activity ([3]; pH 7.0, 37° C.) was 81% and the relative activity ([3]; pH 7.5, 37° C.) was 83%. The relative activity ([3]; pH 8.0, 37° C.) was 100%, the relative activity ([3]; pH 8.5, 37° C.) was 99% and the relative activity ([3]; pH 9.0, 37° C.) was 90%. The relative activity ([3]; pH 9.5, 37° C.) was 80%, the relative activity ([3]; pH 10.0, 37° C.) was 78% and the relative activity ([3]; pH 11.0, 37° C.) was 76%. For the same molecule, the relative activity ([3]; pH 12.0, 37° C.) was 71%, the “activity relative to maximum activity” value ([3]; pH of 5.0 to 12.0) was “at least 70%” and the “degrading ability (albumin in 24 hour reaction defined as 100)” value [4] was “at least 45”. It also gave a protein eluted from the skin ([5]; after 30 minutes) of 1050 µg/mL and a protein eluted from the skin ([5]; after 60 minutes) of 1060 µg/mL.
